Experimental data as given in article PMC12069552, “Root stem cell homeostasis in Arabidopsis involves cell-type specific transcription factor complexes” (EMBO Reports, 2025).

Experiments:
TPL-mVenus = molecular target: T1, TPL-mVenus (Arabidopsis thaliana, UniProt Q94AI7 1-1131); assay: FRET or BRET; FRET-FLIM in nuclei of transiently expressing N. benthamiana epidermal leaf cells; mVenus fusion as donor, mCherry fusion as acceptor; 'binding' [%] is the amplitude of the FRET component (number of donor molecules undergoing FRET); binding cutoff 10%; a binding not significantly different from the negative control (mCherry-NLS) is regarded as no interaction; details: partners not purified
T1 construct: TOPLESS (TPL) of Arabidopsis thaliana; the CDS amplified from cDNA; FRET donor; source: N. benthamiana abaxial epidermal leaf cells, transiently expressed (β-estradiol inducible), in cells
T1 sequence (looked up): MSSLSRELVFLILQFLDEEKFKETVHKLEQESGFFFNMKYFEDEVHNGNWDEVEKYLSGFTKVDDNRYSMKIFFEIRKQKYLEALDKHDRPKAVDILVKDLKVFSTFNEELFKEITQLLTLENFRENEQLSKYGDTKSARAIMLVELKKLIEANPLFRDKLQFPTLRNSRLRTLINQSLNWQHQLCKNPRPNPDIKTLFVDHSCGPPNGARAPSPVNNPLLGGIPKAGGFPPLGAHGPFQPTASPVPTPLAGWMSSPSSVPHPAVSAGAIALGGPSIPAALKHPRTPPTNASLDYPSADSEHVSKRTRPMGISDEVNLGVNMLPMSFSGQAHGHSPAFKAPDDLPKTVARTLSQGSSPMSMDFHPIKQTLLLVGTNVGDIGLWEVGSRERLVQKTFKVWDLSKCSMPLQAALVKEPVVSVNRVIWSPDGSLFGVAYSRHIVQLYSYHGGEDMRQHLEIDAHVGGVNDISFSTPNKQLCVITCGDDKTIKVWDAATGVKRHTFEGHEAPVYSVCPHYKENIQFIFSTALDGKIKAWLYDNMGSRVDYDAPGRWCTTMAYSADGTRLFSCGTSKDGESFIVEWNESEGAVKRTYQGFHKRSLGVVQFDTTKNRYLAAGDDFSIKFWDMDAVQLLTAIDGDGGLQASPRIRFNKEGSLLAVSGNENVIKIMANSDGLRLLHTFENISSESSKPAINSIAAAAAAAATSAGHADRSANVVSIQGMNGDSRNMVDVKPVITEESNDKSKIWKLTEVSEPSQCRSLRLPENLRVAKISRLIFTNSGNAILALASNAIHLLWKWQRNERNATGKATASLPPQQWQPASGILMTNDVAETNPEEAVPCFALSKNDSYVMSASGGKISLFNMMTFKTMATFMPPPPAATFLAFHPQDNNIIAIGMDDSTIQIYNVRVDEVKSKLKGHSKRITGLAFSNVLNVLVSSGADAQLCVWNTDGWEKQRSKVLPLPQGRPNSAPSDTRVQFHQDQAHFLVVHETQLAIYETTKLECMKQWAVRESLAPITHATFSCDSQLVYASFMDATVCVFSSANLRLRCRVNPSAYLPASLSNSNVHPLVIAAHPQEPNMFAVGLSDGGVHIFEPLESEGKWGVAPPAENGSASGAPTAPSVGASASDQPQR

[1] = molecular target: BES1D-mVenus (Arabidopsis thaliana) (UniProt Q9LN63); assay: as above
Chain of BES1D-mVenus (Arabidopsis thaliana) (Q9LN63 whole entry): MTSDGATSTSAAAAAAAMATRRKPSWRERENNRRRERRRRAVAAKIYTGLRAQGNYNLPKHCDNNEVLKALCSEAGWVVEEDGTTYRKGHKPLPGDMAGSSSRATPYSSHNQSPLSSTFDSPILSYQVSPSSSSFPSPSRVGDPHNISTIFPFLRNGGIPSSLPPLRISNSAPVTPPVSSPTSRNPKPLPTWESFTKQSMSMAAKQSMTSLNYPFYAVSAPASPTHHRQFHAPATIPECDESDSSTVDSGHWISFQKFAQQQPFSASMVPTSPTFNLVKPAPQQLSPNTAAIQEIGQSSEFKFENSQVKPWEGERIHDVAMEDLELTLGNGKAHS

[2] = molecular target: T2, WOX5-mV(N) BRAVO-mV(C) heterodimer (BiFC donor) (Arabidopsis thaliana, UniProt Q8H1D2 1-182; Q6R053 1-323); assay: split reporter (BiFC, NanoBiT) + FRET or BRET; BiFC-FRET-FLIM in nuclei of N. benthamiana epidermal leaf cells; mVenus donor split into mV(N) and mV(C) on two proteins, third protein with mCherry as acceptor; 'binding' [%]; binding cutoff 10%; details: partners not purified
T2 construct: WUSCHEL-RELATED HOMEOBOX 5 (WOX5) of Arabidopsis thaliana; the CDS, described in Burkart et al, 2022; BRAVO, R2R3-MYB transcription factor of Arabidopsis thaliana; the CDS amplified from cDNA; also called WOX5-mV(N) and BRAVO-mV(C); source: N. benthamiana leaf cells, transiently co-expressed, in cells
T2 sequence (looked up) 1: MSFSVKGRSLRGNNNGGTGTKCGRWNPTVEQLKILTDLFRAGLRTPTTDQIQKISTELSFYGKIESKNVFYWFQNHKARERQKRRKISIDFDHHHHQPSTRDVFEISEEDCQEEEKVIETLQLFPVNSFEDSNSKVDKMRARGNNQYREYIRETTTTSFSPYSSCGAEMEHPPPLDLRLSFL
T2 sequence (looked up) 2: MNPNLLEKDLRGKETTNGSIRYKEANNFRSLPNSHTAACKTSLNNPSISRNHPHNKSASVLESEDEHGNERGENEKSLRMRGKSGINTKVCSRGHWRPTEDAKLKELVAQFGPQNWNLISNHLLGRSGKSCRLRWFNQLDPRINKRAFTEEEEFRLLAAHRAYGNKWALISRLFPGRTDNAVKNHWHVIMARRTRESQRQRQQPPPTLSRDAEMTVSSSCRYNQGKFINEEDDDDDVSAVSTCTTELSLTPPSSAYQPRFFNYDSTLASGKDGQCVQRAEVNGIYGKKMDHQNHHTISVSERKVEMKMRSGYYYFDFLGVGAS

B1: PLT3-mCherry (PLETHORA 3) (natural protein, Arabidopsis thaliana, UniProt Q52QU2 1-581, looked up)
chain: MMAPMTNWLTFSLSPMEMLRSSDQSQFVSYDASSAASSSPYLLDNFYGWSNQKPQEFFKEEAQLAAAASMADSTILTTFVDPQSHHSQNHIPKLEDFLGDSSSIVRYSDNSQTDTQDSSLTQIYDPRHHHNQTGFYSDHHDFKTMAGFQSAFSTNSGSEVDDSASIGRTHLAGDYLGHVVESSGPELGFHGGSTGALSLGVNVNNNTNHRNDNDNHYRGNNNGERINNNNNNDNEKTDSEKEKAVVAVETSDCSNKKIADTFGQRTSIYRGVTRHRWTGRYEAHLWDNSCRREGQARKGRQGGYDKEDKAARAYDLAALKYWNATATTNFPITNYSKEVEEMKHMTKQEFIASLRRKSSGFSRGASIYRGVTRHHQQGRWQARIGRVAGNKDLYLGTFATEEEAAEAYDIAAIKFRGINAVTNFEMNRYDVEAIMKSALPIGGAAKRLKLSLEAAASSEQKPILGHHQLHHFQQQQQQQQLQLQSSPNHSSINFALCPNSAVQSQQIIPCGIPFEAAALYHHHQQQQQHQQQQQQQNFFQHFPANAASDSTGSNNNSNVQGTMGLMAPNPAEFFLWPNQSY
notes: PLETHORA 3 (PLT3), APETALA2-type transcription factor of Arabidopsis thaliana; CDS and construct described in Burkart et al, 2022; FRET acceptor; construct XVE:PLT3-mCherry of Burkart et al, 2022; also called full-length PLT3; source: N. benthamiana abaxial epidermal leaf cells, transiently expressed (β-estradiol inducible), in cells
TPL-mVenus
  binding (FRET-FLIM, share of donor molecules undergoing FRET): 13.5 ± 4.3%
[1]
  binding (FRET-FLIM, share of donor molecules undergoing FRET): 16.9%
[2]
  binding (FRET-FLIM, share of donor molecules undergoing FRET): 31.5 ± 8.5%
